Consider 1 protein from article PMC4222275, “Biochemical and functional characterization of SpdA, a 2′, 3′cyclic nucleotide phosphodiesterase from Sinorhizobium meliloti” (BMC Microbiology, 2013).

Substrate in the data set: Nc1ncnc2c1ncn2[C@@H]1O[C@H](CO)[C@H]2OP(=O)(O)O[C@H]21
The data set can be described thus: phosphate release with calf intestine phosphatase, Biomol Green. It is filed as biochemical, Sinorhizobium meliloti. The note with it: 50 mM Tris-HCl pH 8, 5 mM beta-mercaptoethanol, 10 mM NaCl, 25 °C, 1 μM SpdA.

B1: SpdA (Sinorhizobium meliloti 1021) (protein)
chain: MTKLIIFSDLHMVPEGETIIGLDPYRRLANGIAHVNRYHADADRVIFAGDLTHRADRASYERLKALLGELTPPAALMIGNHDRRDVFLDVFAEATTDANGFVQQVLDFADCRAILLDTLFAPPYDYPVSHAGHLCDRRLAWLDRQLEEAGGRPALIFMHHPPHISGFAGIDMIRLVNEDDFYALVKRHGNVRHIFAGHVHRTISGSSRGIPFSIFKSPVHQQPMPFDTADASLSVDEPAAYGIALVTGDGVLVHTEDYEIARRDAVGA
notes: C-terminal His6 tag (pET-22b, NdeI-HindIII), tag kept, E. coli BL21(DE3), monomer, metal-free
As to B1, the Km – broadly, the substrate concentration at which the rate is half of its maximum – came out at 3.7 mM; the kcat – broadly, the number of substrate molecules converted per active site and unit of time at saturation – worked out at 2 s⁻¹.
